# B1: ERR1-301 (mAb027) IgG with C-terminal sortase and Strep tags (antibody, V domains shown)
# VH: QEQLEESGGGLVTPGGSLTLTCTASGFTISTYHMSWVRQAPGKGLEWIGSIYAGSGSTYYASWVNGRFTISSNTTQNTVSLQMNSLTVADTATYFCARDHPSYGMDLWGPGTLVTVSS
# VL: SYELTQLPSVSVSLGQTARITCGGNSIGSKAVNWYQQKPGLAPGLLIYDDDERPSGVPDRFSASNSGDTATLTISGAQAEDEADYYCQLWDSSAVAYVFGGGTQLTVTG
# notes: Human IgG1 constant regions
# B2: ERR1-306 (mAb033) IgG with C-terminal sortase and Strep tags (antibody, V domains shown)
# VH: QEQLKESGGGLVQPGGSLKLSCKASGFDLSNYGVSWVRQAPGKGLEWIGYIDPTFDYTYYASWVNGRFSISRENTQNTVSLQINSLTPADTATYFCARWVYGVDDYGDGNWLDLWGQGTLVTISS
# VL: QFVLTQSPSVSAALGASAKLTCTLSSAHKTYTIDWYQQQQGEAPRYLMELKSDGSYTKGTGVPDRFSGSSSGADRYLIIPSVQADDEADYYCGTDYSGGYVFGGGTQLTVTG
# notes: Human IgG1 constant regions
# B3: ERR1-324 (mAb034) IgG with C-terminal sortase and Strep tags (antibody, V domains shown)
# VH: QSLEESGGGLVQPGESLTLTCTVSGFSLSRNGMTWVRQAPGKGLEWIGIITSSGDKYYATWAKGRFTISKTSSTTVDLKMTSLTTEDTATYFCARGTVSSDIWGPGTLVTISS
# VL: ELVLTQTPSPVSAAVGGTVTINCQASQSVYGNNELAWYQQKPGQPPKLLIYRASILTSGVPSRFKGSGSGTQFTLTISNVQREDAATYYCLGGYVSQSYRAAFGGGTELEIL
# notes: Human IgG1 constant regions, kappa light chain
# B4: ERR1-403 (mAb035) IgG with C-terminal sortase and Strep tags (antibody, V domains shown)
# VH: QEQLKESGRGLVQPGGSLKLSCKASGFDFSGWYMTWVRQAPGKGLEWIGTIGTTKGRTYYASWVNGRFTISSNAQNTVDLQMNSLTAADRATYFCVRGSDYFDLWGPGTLVTISS
# VL: SYELTQLPSVSVSLGQTARITCGGNSIGSKAVNWYQQKPGLAPGLLIYDDDERPSGVPARFSGSNSGDTATLTISGAQAGDEADYYCQLWDSSAGAYVFGGGTQLTVTG
# notes: Human IgG1 constant regions
# B5: ERR1-Top43 (mAb036) IgG with C-terminal sortase and Strep tags (antibody, V domains shown)
# VH: QSLEESGGRLVTPGTPLTLTCTVSGFSLSSYWMSWVRQAPGKGLEWIGAIYGSGNTYYASWAKGRFTISKTSTTVDLKITSPTTEDTATYFCARDVHSTATDLWGPGTLVTISS
# VL: SYELTQLPSVSVSLGQTARITCGGNNIGSKAVNWYQQKPGLAPGLLIYNDDERPSGVPDRFSGSNSGDTATLTISGAQAGDEADYYCQLWDSSAGAYVFGGGTQLTVTG
# notes: Human IgG1 constant regions
# B6: XBR1-402 (mAb031) IgG with C-terminal sortase and Strep tags (antibody, V domains shown)
# VH: QEQQKESGGGLFKPTDTLTLTCTASGFDISSYYMSWVRQAPGNGLEWIGAIGISGNAYYASWAKSRSTITRNTNLNTVTLKMTSLTAADTATYFCARDHPTYGMDLWGPGTLVTVSS
# VL: SYELTQLPSVSVSLGQTARITCEGNNIGSKAVHWYQQKPGLAPGLLIYDDDERPSGVPDRFSGSNSGDTATLTISGAQAGDEADYYCQVWDSSAYVFGGGTQLTVTG
# notes: Human IgH-gamma1 and IgL-lambda constant regions
# B7: HuXBR1-402(19)-G5-PNU (Adc460) (other)
# VH: QVQLQESGPGLVKPSETLSLTCTVSGFDISSYYMSWVRQPPGNGLEWIGAIGISGNAYYASWAKSRVTISRDTSKNQFSLKLSSVTAADTAVYYCARDHPTYGMDLWGPGTLVTVSS
# VL: SYELTQPPSVSVAPGKTARITCEGNNIGSKAVHWYQQKPGQAPVLVIYDDDERPSGIPERFSGSNSGNTATLTISRVEAGDEADYYCQVWDSSAYVFGGGTKLTVLG
# modifications: Gly5-EDA-PNU joined by sortase to the C-terminal G5SLPETG tag of the full light chain; Gly5-EDA-PNU joined by sortase to the C-terminal LPETG tag of the full heavy chain
# B8: HuXBR1-402(26)-G5-PNU (Adc461) (other)
# VH: QVQLQESGPGLVKPSETLSLTCTVSGFDISSYYMSWVRQPPGNGLEWIGAIGISGNAYYASWAKSRVTISRDTSKNQFSLKLSSVTAADTAVYYCARDHPTYGMDLWGPGTLVTVSS
# VL: SYELTQPLSVSVALGQTARITCEGNNIGSKAVHWYQQKPGLAPVLVIYDDDERPSGIPERFSGSNSGNTATLTISRAQAGDEADYYCQVWDSSAYVFGGGTQLTVLG
# modifications: Gly5-EDA-PNU joined by sortase to the C-terminal G5SLPETG tag of the full light chain; Gly5-EDA-PNU joined by sortase to the C-terminal LPETG tag of the full heavy chain
# Biological target: T1, twin strep-tagged human ROR2 extracellular domain (human, UniProt Q01974 34-403)
# T1 construct: extracellular domain; Expressed in HEK293T; also called ROR2-ECD-TwinStrep
# Assay: ELISA on coated twin-strep tagged human ROR2; anti-human Fcγ F(ab')2-HRP; absorbance 490 nm
# Description: Each well of a 96-well plate was coated with 100 μL of 2 μg/mL strep-tagged human ROR1 (from Example 5) in 0.1 M bicarbonate coating buffer (pH 9.6), and incubated for 12 h at 4° C. A second 96-well plate was likewise prepared with twin-strep tagged human ROR2 (from Example 5).
# HRP-conjugated F(ab′)₂ anti-human FC-gamma (Jackson Immunoresearch, 109-036-008) was then added at a 1:20′000 dilution, 100 μl per well, and incubated for 1 h at 37° C. prior to detection using an Spark 10M plate reader (Tecan).
# T1 sequence (Q01974 34-403): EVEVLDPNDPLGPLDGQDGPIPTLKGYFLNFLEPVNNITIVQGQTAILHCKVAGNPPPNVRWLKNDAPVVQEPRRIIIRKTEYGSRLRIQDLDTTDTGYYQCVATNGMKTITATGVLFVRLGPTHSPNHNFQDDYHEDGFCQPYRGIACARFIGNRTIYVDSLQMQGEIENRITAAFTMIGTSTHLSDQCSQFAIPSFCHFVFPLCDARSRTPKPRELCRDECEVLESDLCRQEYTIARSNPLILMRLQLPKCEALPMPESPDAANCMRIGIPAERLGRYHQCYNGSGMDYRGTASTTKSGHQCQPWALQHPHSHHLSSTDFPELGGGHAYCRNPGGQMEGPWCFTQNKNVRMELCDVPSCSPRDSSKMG
row,Binder,binding result
1,B1,no binding (tested: about 500 ng/ml)
2,B2,no binding (tested: about 500 ng/ml)
3,B3,no binding (tested: about 500 ng/ml)
4,B4,no binding (tested: about 500 ng/ml)
5,B5,no binding (tested: about 500 ng/ml)
6,B6,no binding (tested: about 500 ng/ml)

# Biological target: human ROR1, full length, on cells (human, UniProt Q01973 30-937)
# Assay: cell-based or functional assay
# human ROR1, full length, on cells, sequence (Q01973 30-937): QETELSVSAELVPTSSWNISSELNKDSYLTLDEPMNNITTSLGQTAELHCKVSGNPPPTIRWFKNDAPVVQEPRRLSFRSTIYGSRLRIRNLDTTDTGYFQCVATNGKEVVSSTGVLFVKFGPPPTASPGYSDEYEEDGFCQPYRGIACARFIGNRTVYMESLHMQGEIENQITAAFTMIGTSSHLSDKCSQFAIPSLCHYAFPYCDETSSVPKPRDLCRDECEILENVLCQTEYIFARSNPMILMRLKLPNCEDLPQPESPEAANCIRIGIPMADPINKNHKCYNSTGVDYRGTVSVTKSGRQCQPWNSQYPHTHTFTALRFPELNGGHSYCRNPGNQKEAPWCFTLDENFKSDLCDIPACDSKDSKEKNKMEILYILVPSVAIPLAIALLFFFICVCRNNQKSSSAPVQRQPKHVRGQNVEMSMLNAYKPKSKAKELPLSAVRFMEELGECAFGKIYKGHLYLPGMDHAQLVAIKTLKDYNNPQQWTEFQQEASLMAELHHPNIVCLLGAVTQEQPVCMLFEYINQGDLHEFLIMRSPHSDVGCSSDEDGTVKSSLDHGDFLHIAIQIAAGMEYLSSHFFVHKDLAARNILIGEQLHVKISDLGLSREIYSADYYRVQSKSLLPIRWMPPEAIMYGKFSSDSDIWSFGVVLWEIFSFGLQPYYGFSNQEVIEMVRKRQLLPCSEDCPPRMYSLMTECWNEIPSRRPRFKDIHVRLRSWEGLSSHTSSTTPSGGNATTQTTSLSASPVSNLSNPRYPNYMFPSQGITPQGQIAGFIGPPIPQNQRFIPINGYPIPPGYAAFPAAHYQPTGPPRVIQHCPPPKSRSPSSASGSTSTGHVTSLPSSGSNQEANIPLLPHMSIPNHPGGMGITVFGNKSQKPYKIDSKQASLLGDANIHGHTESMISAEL
row,Binder,IC50 values on 697 cells (in vitro cell killing)
1,B7,0.0917 mg/L
2,B8,0.0939 mg/L

# — patent US20220153839A1 (NBE THERAPEUTICS, published 2022)
